# ± gives the uncertainty stated by the source.
# Assay: self-splicing fitness, log relative to wild type (ln ratio); higher = more splicing; Tetrahymena group I intron in knt gene, E. coli kanamycin selection, DiMSum; sequences stand for … in CUCUCU…GGAGGGAAAAGUUAUCAGGCAUGCACCUGGUAGCUAGUCUUUAAACCAAUAGAUUGCAUCGGUUUAAAAGGCAAGACCGUCAAAUUGCGGGAAAGGGGUCAACAGCCGUUCAGUACCAAGUCUCAGGGGAAACUUUGAGAUGGCCUUGCAAAGGGUAUGGUAAUAAGCUGACGGACAUGGUCCUAACCACGCAGCCAAGUCCUAAGUCAACAGAUCUUCUGUUGAUAUGGAUGCAGUUCACAGACUAAAUGUCGGUCGGGGAAGAUGUAUUCUUCUCAUAAGAUAUAGUCGGACCUCUCCUUAAUGGGAGCUAGCGGAUGAAGUGAUGCAACACUGGAGCCGCUGGGAACUAAUUUGUAUGCGAAAGUAUAUUGAUUAGUUUUGGAGUACUCGUGGUCG
# In short: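 A randomised library covering all eight P1ex-region intron nucleotides was built with the intron in the knt kanamycin-resistance gene on pET-22b(+) and held in E. coli BL21(DE3). Cells were grown overnight at 37°C or 30°C on LB agar, with or without 25 μg/mL kanamycin, plus 100 μg/mL carbenicillin, 50 μM IPTG and 0.2% rhamnose, and pooled colonies were amplicon-sequenced on an Illumina HiSeq 2500. DiMSum fitness is the error-weighted combination of wild-type-normalised replicate fold changes, kanamycin versus none.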
Sequence,self-splicing fitness (ln) (30 °C),self-splicing fitness (ln) (37 °C)
CGGCAGCAAUAUUACGGUUU,-2.16 ± 0.077,-0.769 ± 0.089
CGGCAGCAAUAUUACGUAAU,-3.38 ± 0.18,-1.69 ± 0.22
CGGCAGCAAUAUUACGUACC,-2.07 ± 0.19,-1.61 ± 0.25
CGGCAGCAAUAUUACGUCAG,-2.04 ± 0.099,-0.000984 ± 0.1
CGGCAGCAAUAUUACGUCUG,-2.32 ± 0.21,-1.86 ± 0.19
CGGCAGCAAUAUUACGUUCC,-2.59 ± 0.14,-1.77 ± 0.21
CGGGAGCAAUAUUACGAACA,–,-1.37 ± 0.22
CGGGAGCAAUAUUACGAAUG,-3.6 ± 0.21,-1.1 ± 0.15
CGGGAGCAAUAUUACGACUG,-3.19 ± 0.22,-1.55 ± 0.18
CGGGAGCAAUAUUACGAUGC,-3.44 ± 0.2,-2.91 ± 0.4
CGGGAGCAAUAUUACGAUUA,–,-3.69 ± 0.42
CGGGAGCAAUAUUACGCCUA,-2.84 ± 0.27,-2.14 ± 0.19
CGGGAGCAAUAUUACGCUUC,–,-2.21 ± 0.31
CGGGAGCAAUAUUACGCUUG,–,-2.34 ± 0.31
CGGGAGCAAUAUUACGUCUC,-2.33 ± 0.24,–
CGGGAGCAAUAUUACGUUUU,-2.19 ± 0.18,-1.53 ± 0.27
CGGUAGCAAUAUUACGAACA,-0.899 ± 0.16,-0.395 ± 0.2
CGGUAGCAAUAUUACGAAUA,-2.04 ± 0.35,-1.67 ± 0.3
CGGUAGCAAUAUUACGACAG,-0.475 ± 0.15,0.021 ± 0.16
CGGUAGCAAUAUUACGACGU,-1.76 ± 0.13,-1.08 ± 0.17
CGGUAGCAAUAUUACGAGCA,-3.2 ± 0.31,-0.781 ± 0.17
CGGUAGCAAUAUUACGAGCU,-2.4 ± 0.15,-1.89 ± 0.2
CGGUAGCAAUAUUACGAGGC,–,-0.808 ± 0.29
CGGUAGCAAUAUUACGAGUG,-0.671 ± 0.098,0.142 ± 0.17
CGGUAGCAAUAUUACGAUCG,-2.68 ± 0.22,-2.27 ± 0.32
CGGUAGCAAUAUUACGAUUG,-0.538 ± 0.073,-0.0537 ± 0.095

Sequence,self-splicing fitness (ln) (30 °C),self-splicing fitness (ln) (37 °C)
CGGUAGCAAUAUUACGCAAC,–,-1.42 ± 0.35
CGGUAGCAAUAUUACGCACU,-1.64 ± 0.26,0.00723 ± 0.27
CGGUAGCAAUAUUACGCAUG,-0.808 ± 0.069,0.339 ± 0.08
CGGUAGCAAUAUUACGCUGA,-2.23 ± 0.21,-0.951 ± 0.2
CGGUAGCAAUAUUACGGACU,-1.25 ± 0.16,-0.871 ± 0.2
CGGUAGCAAUAUUACGGCAG,-0.164 ± 0.13,0.767 ± 0.16
CGGUAGCAAUAUUACGGCGU,-2.03 ± 0.14,-0.594 ± 0.13
CGGUAGCAAUAUUACGGGGG,-3.21 ± 0.22,-3.01 ± 0.43
CGGUAGCAAUAUUACGGGUA,-2.65 ± 0.21,-3.01 ± 0.28
CGGUAGCAAUAUUACGGUAU,-3.77 ± 0.22,-2.31 ± 0.22
CGGUAGCAAUAUUACGGUUG,-0.837 ± 0.069,-0.0229 ± 0.093
CGGUAGCAAUAUUACGUAAG,0.00223 ± 0.095,0.329 ± 0.11
CGGUAGCAAUAUUACGUACC,-3.27 ± 0.4,-1.89 ± 0.3
CGGUAGCAAUAUUACGUAGA,-1.73 ± 0.053,-1.89 ± 0.082
CGGUAGCAAUAUUACGUAGC,-3.25 ± 0.2,-3.13 ± 0.27
CGGUAGCAAUAUUACGUAGU,-2.59 ± 0.13,-1.34 ± 0.16
CGGUAGCAAUAUUACGUCGU,-3.85 ± 0.22,-2.02 ± 0.24
CGGUAGCAAUAUUACGUGCU,-3.24 ± 0.28,-2.51 ± 0.29
CGUAAGCAAUAUUACGACAU,-3.255 ± 0.022,-1.8 ± 0.035
CGUAAGCAAUAUUACGAGGU,-3.63 ± 0.46,-1.71 ± 0.29
CGUAAGCAAUAUUACGAUGG,-1.37 ± 0.097,-0.574 ± 0.13
CGUAAGCAAUAUUACGAUGU,–,-1.57 ± 0.16
CGUAAGCAAUAUUACGAUUC,-3 ± 0.13,-2.52 ± 0.16
CGUAAGCAAUAUUACGCAGC,–,-2.3 ± 0.39
CGUAAGCAAUAUUACGCCAA,-3.24 ± 0.33,-1.91 ± 0.4

# From the supplement of paper PMC7877785
